The target of data set [1] is IFN-α (Roferon-A) (UniProt P01563). The data set is described as follows: zinc IMAC resin binding and SDS-PAGE; 200 ng IFN-α or IFN-λ3 on IMAC-Select gel charged with ZnSO4, 4 °C, 50 mM NaH2PO4, 300 mM NaCl, pH 8.0; eluted with 100 mM EDTA; SDS-PAGE, SYPRO ruby; bands read as monomer and dimer.
Data set [2] concerns the molecule itself. Described as above.

For “IFN-α (Roferon-A) (from UniProt P01563 24-188) (ligand)”, the stoichiometry N (in general, the number of molecules, sites or subunits per partner or assembly) in data set [1] turned out to be 2.

B1: recombinant human IFN-λ3 (ligand, UniProt Q8IZI9 22-196, looked up)
chain: VPVARLRGALPDARGCHIAQFKSLSPQELQAFKRAKDALEESLLLKDCKCRSRLFPRTWDLRQLQVRERPVALEAELALTLKVLEATADTDPALGDVLDQPLHTLHHILSQLRACIQPQPTAGPRTRGRLHHWLHRLQEAPKKESPGCLEASVTFNLFRLLTRDLNCVASGDLCV
notes: IFN-λ3 (interferon lambda 3), human, recombinant, R&D Systems; (Cys169); also called interferon lambda 3; IFNL3; source: bought: R&D Systems
As to B1, in data set [2], the “stoichiometry N” value was determined as 2.

(Values after article PMC5442324, “Zinc is a potent and specific inhibitor of IFN-λ3 signalling” (Nature Communications, 2017).)
